Measured values: patent publication EP4803150A2 (Lyvgen Biopharma Holdings Limited, dated 2026)

Target: T1, PD-1 (human, UniProt Q15116 25-167, limits assumed)
T1 construct: On Jurkat T cells expressing human PD-1 in the reporter assay
Experiment: FCM or ELISA, graded

T1 sequence (Q15116 25-167 limits assumed): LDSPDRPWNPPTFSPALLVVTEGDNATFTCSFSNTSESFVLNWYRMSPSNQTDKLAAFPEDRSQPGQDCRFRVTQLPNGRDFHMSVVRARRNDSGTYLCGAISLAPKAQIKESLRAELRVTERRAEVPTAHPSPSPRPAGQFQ

B1: Ly2904 (multi-specific antibody)
chain 1: QVQLVQSGAEVKKPGASVKVSCKASGYTFTSYVMHWVRQKPGQGLEWIGYINPYNEGTESTDKFKGRATMTSDKSTSTVYMELSSLRSEDTAVYYCASIYYGYEGTYFGVWGQGTLVTVSSASTKGPSVFPLAPSSKSTSGGTAALGCLVKDYFPEPVTVSWNSGALTSGVHTFPAVLQSSGLYSLSSVVTVPSSSLGTQTYICNVNHKPSNTKVDKKVEPKSCGGGGSGGGGSGGGGSGGGGSEVQLVESGGGLVQPGGSLRLSCAASGFTFSTYAMNWVRQAPGKGLEWVGRIRSKYNNYATYYADSVKGRFTISRDDSKNSLYLQMNSLKTEDTAVYYCVRHGNFGNSYVSWFAYWGQGTLVTVSSGGGGSDKTHTCPPCPAPELLGPSVFLFPPKPKDTLMISRTPEVTCVVVDVSHEDPEVKFNWYVDGVEVHNAKTKPREEQYNSTYRVVSVLTVLHQDWLNGKEYKCKVSNKALGAPIEKTISKAKGQPREPQVYTLPPSREEMTKNQVSLWCLVKGFYPSDIAVEWESNGQPENNYKTTPPVLDSDGSFFLYSKLTVDKSRWQQGNVFSCSVMHEALHNHYTQKSLSLSPGKGGGGSGGGGSGGGGSGGGGSQVTLKESGPALVKPTQTLTLTCTFSGFSLSTSGTCVSWIRQPPGKALEWLATICWEDSKGYNPSLKSRLTISKDTSKNQAVLTMTNMDPVDTATYYCARREDSGYFWFPYWGQGTLVTVSS
chain 2: QVQLVQSGAEVKKPGASVKVSCKASGYTFTSYVMHWVRQKPGQGLEWIGYINPYNEGTESTDKFKGRATMTSDKSTSTVYMELSSLRSEDTAVYYCASIYYGYEGTYFGVWGQGTLVTVSSASTKGPSVFPLAPSSKSTSGGTAALGCLVKDYFPEPVTVSWNSGALTSGVHTFPAVLQSSGLYSLSSVVTVPSSSLGTQTYICNVNHKPSNTKVDKKVEPKSCGGGGSGGGGSGGGGSGGGGSQAVVTQEPSLTVSPGGTVTLTCRSSTGAVTTSNYANWVQQKPGQAPRGLIGGTNKRAPWTPARFSGSLLGGKAALTITGAQAEDEADYYCALWYSNLWVFGGGTKLTVLGGGGSDKTHTCPPCPAPELLGPSVFLFPPKPKDTLMISRTPEVTCVVVDVSHEDPEVKFNWYVDGVEVHNAKTKPREEQYNSTYRVVSVLTVLHQDWLNGKEYKCKVSNKALGAPIEKTISKAKGQPREPQVYTLPPSREEMTKNQVSLSCAVKGFYPSDIAVEWESNGQPENNYKTTPPVLDSDGSFFLVSKLTVDKSRWQQGNVFSCSVMHEALHNRFTQKSLSLSPGKGGGGSGGGGSGGGGSGGGGSNIQMTQSPSSLSASVGDRVTITCKAGQNVNNYLAWYQQKPGKAPKVLIFNANSLQTGVPSRFSGSGSGTDFTLTISSLQPEDFATYYCQQYNSWPTFGGGTKVEIK
chain 3: EIVLTQSPATLSLSPGERATLSCRASSSVSYMHWYQQKPGQAPRPWIYATSNLASGIPARFSGSRSGTDYTLTISSLEPEDFAVYYCQQWSSNTLTFGGGTKVEIKRTVAAPSVFIFPPSDEQLKSGTASVVCLLNNFYPREAKVQWKVDNALQSGNSQESVTEQDSKDSTYSLSSTLTLSKADYEKHKVYACEVTHQGLSSPVTKSFNRGEC
notes: anti-B7H3/CD3/PD-1
- binding result: binds
